Measured values: publication doi:10.1101/2021.04.23.441069

What was measured:
[1] = target: NyxA (purified, not held on the resin) (Brucella abortus 2308) (UniProt Q2YPD9); test: […]
[2] = target: NyxB (untagged, His tag cleaved with TEV) (Brucella abortus 2308) (UniProt Q2YPZ9); test: […]

| Substance | stoichiometry N [1] | stoichiometry N [2] |
| --- | --- | --- |
| NyxA (purified, not held on the resin) (from UniProt Q2YPD9 1-129) (natural protein) | 2 |  |
| NyxB (untagged, His tag cleaved with TEV) (from UniProt Q2YPZ9 1-134) (natural protein) |  | 2 |
